The record followed here is publication PMC5343656, “The human mitochondrial transcription factor A is a versatile G-quadruplex binding protein”.

Data set [1] addresses T1, TFAM (mature) (human, UniProt Q00059 43-246).
T1 sequence: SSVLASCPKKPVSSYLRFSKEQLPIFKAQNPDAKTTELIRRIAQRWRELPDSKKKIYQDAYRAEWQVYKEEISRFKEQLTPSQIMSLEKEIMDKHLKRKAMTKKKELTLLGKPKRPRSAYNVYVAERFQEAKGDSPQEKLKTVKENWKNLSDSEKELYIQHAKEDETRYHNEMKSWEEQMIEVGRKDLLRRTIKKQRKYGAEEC
Put plainly: EMSA; EMSA: 25 mM Tris-HCl pH 7.0, 90 mM NaCl, 1 mM DTT, 3% glycerol, 0.01% Tween20, 30 min, room temperature; G4s mostly prefolded in 10 mM cacodylate pH 6.5, 100 mM KCl. As to conditions: protein: recombinant, tags: C-terminal 6xHis. On the technique in general: In EMSA bound probe runs differently from free probe, usually more slowly.

The target in data set [2] is T1, TFAM (mature). Description: EMSA; single shift; EMSA: 25 mM Tris-HCl pH 7.0, 90 mM NaCl, 1 mM DTT, 3% glycerol, 0.01% Tween20, 30 min, room temperature; G4s mostly prefolded in 10 mM cacodylate pH 6.5, 100 mM KCl. As to conditions: protein: recombinant; tags: C-terminal 6xHis; G4 tetramer of 4 strands.
Data set [3] deals with T1, TFAM (mature). Description: EMSA; similar to unmodified c-myc; EMSA: 25 mM Tris-HCl pH 7.0, 90 mM NaCl, 1 mM DTT, 3% glycerol, 0.01% Tween20, 30 min, room temperature; G4s mostly prefolded in 10 mM cacodylate pH 6.5, 100 mM KCl. As to conditions: protein: recombinant; tags: C-terminal 6xHis; intramolecular G4.
Data set [4] addresses T1, TFAM (mature). Put plainly: competition; vs 32P CSBII G4-DNA/RNA; EMSA: 25 mM Tris-HCl pH 7.0, 90 mM NaCl, 1 mM DTT, 3% glycerol, 0.01% Tween20, 30 min, room temperature; G4s mostly prefolded in 10 mM cacodylate pH 6.5, 100 mM KCl. Particulars: protein: recombinant; tags: C-terminal 6xHis; duplex.
The next data set deals with T2, TFAM (mature);TFAM HMG1 (human;human, UniProt Q00059;Q00059 43-246;43-125, |).
T2 sequence 1: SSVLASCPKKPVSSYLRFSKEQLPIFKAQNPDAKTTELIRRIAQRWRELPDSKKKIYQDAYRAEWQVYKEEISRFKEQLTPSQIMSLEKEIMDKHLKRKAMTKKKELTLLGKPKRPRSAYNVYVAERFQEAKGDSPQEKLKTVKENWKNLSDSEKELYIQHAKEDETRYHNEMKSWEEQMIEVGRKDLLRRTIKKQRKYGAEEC
T2 sequence 2: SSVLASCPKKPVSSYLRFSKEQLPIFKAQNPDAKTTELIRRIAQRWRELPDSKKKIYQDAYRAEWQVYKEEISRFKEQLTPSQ
Description: EMSA; one TFAM and one HMG1 per G4; EMSA: 25 mM Tris-HCl pH 7.0, 90 mM NaCl, 1 mM DTT, 3% glycerol, 0.01% Tween20, 30 min, room temperature; G4s mostly prefolded in 10 mM cacodylate pH 6.5, 100 mM KCl. Particulars: protein: recombinant;recombinant; tags: C-terminal 6xHis;; label: 5' 32P or SybrGold; G4 parallel tetramer of 4 strands.

In data set [5] the target is T1, TFAM (mature). Description: competition; homo-competition, 32P-G4-LSP22H; EMSA: 25 mM Tris-HCl pH 7.0, 90 mM NaCl, 1 mM DTT, 3% glycerol, 0.01% Tween20, 30 min, room temperature; G4s mostly prefolded in 10 mM cacodylate pH 6.5, 100 mM KCl. Particulars: protein: recombinant; tags: C-terminal 6xHis; label: 5' 32P or SybrGold; G4 parallel tetramer of 4 strands.
The target in data set [6] is T1, TFAM (mature). Description: intrinsic fluorescence quenching; EMSA: 25 mM Tris-HCl pH 7.0, 90 mM NaCl, 1 mM DTT, 3% glycerol, 0.01% Tween20, 30 min, room temperature; G4s mostly prefolded in 10 mM cacodylate pH 6.5, 100 mM KCl. Particulars: protein: recombinant, tags: C-terminal 6xHis.
In data set [7] the target is T1, TFAM (mature). Description: competition; vs 32P-dsLSP22; EMSA: 25 mM Tris-HCl pH 7.0, 90 mM NaCl, 1 mM DTT, 3% glycerol, 0.01% Tween20, 30 min, room temperature; G4s mostly prefolded in 10 mM cacodylate pH 6.5, 100 mM KCl. Particulars: protein: recombinant; tags: C-terminal 6xHis; label: 5' 32P or SybrGold; G4 parallel tetramer of 4 strands.
In data set [8] the target is T3, TFAM (mature);TFAM HMG1-L (human;human, UniProt Q00059;Q00059 43-246;43-152, |).
T3 sequence 1: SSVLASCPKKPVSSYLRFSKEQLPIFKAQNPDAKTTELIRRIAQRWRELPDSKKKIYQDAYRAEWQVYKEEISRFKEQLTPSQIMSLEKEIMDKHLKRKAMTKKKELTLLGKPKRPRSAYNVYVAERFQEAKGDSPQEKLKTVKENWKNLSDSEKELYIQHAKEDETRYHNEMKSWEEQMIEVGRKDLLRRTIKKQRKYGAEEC
T3 sequence 2: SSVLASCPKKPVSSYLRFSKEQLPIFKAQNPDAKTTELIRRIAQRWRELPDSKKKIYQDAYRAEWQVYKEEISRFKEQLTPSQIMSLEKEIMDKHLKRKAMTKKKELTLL
Put plainly: EMSA; one TFAM and one or two HMG1-L per G4; EMSA: 25 mM Tris-HCl pH 7.0, 90 mM NaCl, 1 mM DTT, 3% glycerol, 0.01% Tween20, 30 min, room temperature; G4s mostly prefolded in 10 mM cacodylate pH 6.5, 100 mM KCl. As to conditions: protein: recombinant;recombinant; tags: C-terminal 6xHis;N-terminal His; label: 5' 32P or SybrGold; G4 parallel tetramer of 4 strands.

The target of data set [9] is T1, TFAM (mature). Put plainly: EMSA; microscopic k2, two-site fit; k12 0.58; EMSA: 25 mM Tris-HCl pH 7.0, 90 mM NaCl, 1 mM DTT, 3% glycerol, 0.01% Tween20, 30 min, room temperature; G4s mostly prefolded in 10 mM cacodylate pH 6.5, 100 mM KCl. Particulars: protein: recombinant; tags: C-terminal 6xHis; label: 5' 32P or SybrGold; G4 parallel tetramer of 4 strands.
The target of data set [10] is T1, TFAM (mature). Description: EMSA; microscopic k1, two-site fit; EMSA: 25 mM Tris-HCl pH 7.0, 90 mM NaCl, 1 mM DTT, 3% glycerol, 0.01% Tween20, 30 min, room temperature; G4s mostly prefolded in 10 mM cacodylate pH 6.5, 100 mM KCl. As to conditions: protein: recombinant; tags: C-terminal 6xHis; label: 5' 32P or SybrGold; G4 parallel tetramer of 4 strands.
The mark [11] stands for this setting: label: 5' 32P or SybrGold, G4 parallel tetramer of 4 strands.
[12] abbreviates: label: 5' 32P, G4 tetramer of 4 strands.

As for TGGGGGGT (structured_DNA) [(TG6T)4], the binding result in the data set with TFAM (mature) [1] (G4 tetramer of 4 strands) is given as “no binding”. For the molecule TCACAGGGGTGTGGGGACAGGGGTGTGGGGTGACT (structured_DNA) [ILPR G4 extended], in the data set with TFAM (mature) [1] (intramolecular G4), the Kd is around 26 nM. For the molecule TAGTTGGGGGGT (structured_DNA) [(TAGTTG6T)4], the binding result with TFAM (mature) [2] is “binds”.

As to GAAGCGGGGGAGGGGGGGUUUGGUGGAAAU (structured_RNA) [CSBII G4-RNA], in the data set with TFAM (mature) [1] (label: 5' 32P, G4 bimolecular), the Kd was 1.25 nM. On to TCTGAGGGTGGGTAGGGTGGGTAACT (structured_DNA) [c-myc G4 extended], for which the binding result with TFAM (mature) [3] is “binds”. Take TGAGGGTGGGTAGGGTGGGTAA (structured_DNA) [c-myc G4]: the Kd in the data set with TFAM (mature) [1] (label: 5' 32P, intramolecular G4, parallel by CD) came out at 53 nM. Turning to GAAGCGGGGGAGGGGGGGTTTGGTGGAAAT (structured_DNA) [CSBII G4-DNA (EMSA)], the Kd in the data set with TFAM (mature) [1] (label: 5' 32P, G4, purified bimolecular) worked out at 3.65 nM.

B1: CSBII DNA/RNA heteroduplex competitor (DNA:RNA)
RNA: GAAGCGGGGGAGGGGGGGUUUGGUGGAAAU
DNA: ATTTCCACCAAACCCCCCCTCCCCCGCTTC
Turning to B1, the binding signal with TFAM (mature) [4] was ~80 % free probe at 500-fold excess. With GTTAGTTGGGGGGTGACTGTTA (structured_DNA) [G4-LSP22H], the binding result (in the data set with TFAM (mature);TFAM HMG1; in data set [8]) was “binds” in each case. The binding signal was 10 fold excess for 50% free probe in the data set with TFAM (mature) [5], around 70 % Trp quenching with TFAM (mature) [6] (setting [11]) and 1.6 fold excess for 50% displacement with TFAM (mature) [7]. Also, in the data set with TFAM (mature) [1] (setting [11]), the Kd was found to be 0.65 nM. Also, the Ka is 0.69 ± 0.25 10^9 M^-1 in the data set with TFAM (mature) [9] and 0.61 ± 0.12 10^9 M^-1 with TFAM (mature) [10].

On to ACAGGGGTGTGGGGACAGGGGTGTGGGG (structured_DNA) [ILPR G4], for which the Kd with TFAM (mature) [1] (label: 5' 32P, intramolecular G4, mostly antiparallel by CD) was 118 nM.

TGGGGGGTGACT (structured_DNA) [(TG6TGACT)4]: the Kd with TFAM (mature) [2] turned out to be 5 nM. AATAATGTGTTAGTTGGGGGGTG (structured_DNA) [G4-LSPas]: the binding signal with TFAM (mature) [6] (setting [12]) was around 70 % Trp quenching. Further, in the data set with TFAM (mature) [1] (setting [12]), the Kd worked out at 0.89 nM.

B2: CSBII G4-DNA/RNA (mixed)
DNA: GAAGCGGGGGAGGGGGGGTTTGGTGGAAAT
RNA: GAAGCGGGGGAGGGGGGGUUUGGUGGAAAU
Take B2: the dissociation constant (Kd) with TFAM (mature) [1] (label: 5' 32P, hybrid G4 bimolecular) stood at 1.85 nM.

B3: dsLSP22 (dsDNA)
DNA 1: GTTAGTTGGGGGGTGACTGTTA
DNA 2: TAACAGTCACCCCCCAACTAAC
For B3, in the data set with TFAM (mature) [6] (label: 5' 32P (EMSA), blunt), the binding signal was around 50 % Trp quenching. Moreover, in the data set with TFAM (mature) [1] (label: 5' 32P (EMSA), blunt), the Kd turned out to be 9.2 nM.

What is called Kd is a measure of binding affinity in units of concentration.
